Assay results as given in patent US20180230469A1, “METHOD OF TREATING PAIN WITH AN ANTIBODY AGAINST NETRIN-4, UNC5B OR NEOGENIN” (OSAKA UNIVERSITY, priority 2013, published 2018).
“Also recorded” adds a separate entry of the source.

Columns and labels:
SHP2 = molecular target: T1, SHP2 (Rattus norvegicus, UniProt P41499); experiment: von Frey filament test after intrathecal netrin-4 mixed with SHP inhibitor; type: in vivo; conditions: inhibitor 1 mM mixed with netrin-4 40 ng/μL, 10 μL intrathecal; for change in withdrawal threshold after administration of mixture with netrin-4: 12, 24 and 48 hours; for degree of reduction in withdrawal threshold at 24 hours after administration: vs netrin-4 alone
T1 construct: SHP2 is expressed in the neurons of the dorsal horn of the spinal cord; from tissue; host or cells: spinal cord of living rats (in vivo, intrathecal administration)
T1 sequence (P41499 1-593): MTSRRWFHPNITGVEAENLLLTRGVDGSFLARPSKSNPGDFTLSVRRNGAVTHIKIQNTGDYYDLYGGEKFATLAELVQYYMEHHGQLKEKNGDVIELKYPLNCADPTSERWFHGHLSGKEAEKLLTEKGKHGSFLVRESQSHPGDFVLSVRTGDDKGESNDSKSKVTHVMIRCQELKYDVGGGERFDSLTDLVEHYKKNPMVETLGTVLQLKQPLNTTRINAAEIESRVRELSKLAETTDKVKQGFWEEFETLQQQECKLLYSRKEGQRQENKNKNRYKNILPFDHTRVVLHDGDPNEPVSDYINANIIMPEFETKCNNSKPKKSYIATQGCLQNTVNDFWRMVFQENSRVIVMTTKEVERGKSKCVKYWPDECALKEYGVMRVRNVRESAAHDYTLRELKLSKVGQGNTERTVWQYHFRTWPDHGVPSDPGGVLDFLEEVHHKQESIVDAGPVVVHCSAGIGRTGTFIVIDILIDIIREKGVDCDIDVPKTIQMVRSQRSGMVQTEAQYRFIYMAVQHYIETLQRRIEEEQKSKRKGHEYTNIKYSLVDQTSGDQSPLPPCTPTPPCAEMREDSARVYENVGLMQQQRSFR
Procedure: (§1) The von Frey filament test was used to measure the response to mechanical stimuli. Before the test, a plastic case was set onto a metallic mesh, and the pain model rat was put into the plastic case and acclimated to the environment for 5 to 10 minutes until settled. A filament (Semmes-Weinstein Von Frey Anesthesiometer, Muromachi Kikai Co., Ltd.) was applied to the center of the plantar surface of the hindpaw for 3 to 5 seconds, and the threshold for hindpaw withdrawal (g) was measured. After the measurement of the withdrawal thresholds of both the paws was completed, the animal used was identified from the ear tag and then returned to a breeding cage.
(§2) A purified netrin-4 protein (R&D) was dissolved in physiological saline to give a 40 ng/μL netrin-4 solution. […] (Calbiochem), an inhibitor of SHPs, was dissolved at a concentration of 50 mM in sterilized water and kept refrigerated until use. The solution was diluted 50-fold with physiological saline before use. PTPi4 (bis(4-trifluoromethylsulfonamidophenyl)-1,4-diisopropylben zene, Protein Tyrosine Phosphatase Inhibitor IV, Calbiochem), an inhibitor of SHP2, was dissolved at a concentration of 16.4 mM in DMSO (dimethyl sulfoxide, Sigma-Aldrich) and kept refrigerated until use. The solution was diluted to a final concentration of 1 mM with physiological saline before use.
In order to clarify whether the activation of SHP2 is required for the action of netrin-4 on the potentiation of nociceptive response, it was examined whether intrathecal administration of a SHPs inhibitor, NSC87877, or a SHP2 inhibitor, PTPi4 (bis(4-trifluoromethylsulfonamidophenyl)-1,4-diisopropylben zene, Protein Tyrosine Phosphatase Inhibitor IV), would cancel the effect of intrathecal administration of netrin-4. NSC87877 (final concentration: 1 mM) or PTPi4 (final concentration: 1 mM) was mixed with netrin-4 (final concentration: 40 ng/μL , and 10 uL of the mixture was infused from the rear end of the polyethylene tube retained in the medullary cavity. The von Frey filament test was conducted at 12, 24 and 48 hours after the administration to examine the change in withdrawal threshold.

male Wistar rat = experiment: von Frey filament test after intrathecal administration of netrin-4 to rats; type: in vivo
Procedure: as §1, §2
In order to clarify the function of netrin-4 in the spinal cord in an in vivo setting, the change in nociceptive response after intrathecal administration of netrin-4 was examined. First, a polyethylene tube was inserted into the medullary cavity of an 8-week-old male Wistar rat. One week after the intubation, the von Frey filament test was conducted to confirm, the absence of intubation-caused motor dysfunction. Ten microliters of a netrin-4 solution (40 ng/μL) was infused from the rear end of the tube retained in the medullary cavity. Meanwhile, the same volume of physiological saline was administered to each animal of the control group. The von Frey filament test was conducted at 12, 24 and 48 hours after the administration to examine the change in withdrawal threshold.
Ten microliters of a netrin-4 solution (40 ng/μL), a 10% netrin-4 solution (4 ng/μL) , a 1% netrin-4 solution (0.4 ng/μL) or a thermally denatured netrin-4 solution (prepared by heat treatment of a netrin-4 solution (40 ng/μL) at 100° C. for 10 minutes) was administered in the same manner as in Experiment 1, and the degree of the change in withdrawal threshold from before to 24 hours after the administration was calculated.

[1] = test system: glial cells or immune cells in the spinal cord; experiment: Immunostaining of Iba1, GFAP, CD3ε and CD45R in lumbar cord tissue after intrathecal netrin-4; type: in vivo, rat; conditions: lumbar cord tissue 48 hours after intrathecal administration, vs physiological saline
Procedure: (§3) Rat tissue fixation was performed by perfusion under deep anesthesia with intraperitoneal pentobarbital. For the fixation, 0.1 M phosphate buffer was perfused, followed by a 4% PFA solution (a solution of 4% paraformaldehyde (Nacalai Tesque) in 0.1 M phosphate buffer). After the perfusion-fixation, the lumbar enlargement of the spinal cord was dissected, immersed in a 4% PFA solution and further fixed for 6 hours. The 4% PFA solution was replaced with a solution of 30% sucrose (Nacalai Tesque) in 0.1 M phosphate buffer before incubation with agitation at 4° C. for two consecutive days. The lumbar cord tissue was embedded in OCT compound (Sakura Finetek Japan Co., Ltd.), frozen and sliced to a thickness of 20 μm with a cryostat, and the resulting section was mounted onto a slide glass (Matsunsmi Glass Ind., Ltd.). The specimen was immersed in a 5% BSA solution (a solution of 5% BSA (bovine serum albumin, Sigma-Aldrich) in 0.1 M phosphate buffer) at room temperature for 2 hours. The 5% BSA solution was replaced with a 5% BSA solution containing a primary antibody, and the reaction was allowed to proceed at 4° C. for two consecutive days. […] After washing with 0.1 M phosphate buffer 3 times, the specimen was coverslipped with a mounting medium and then observed under a fluorescence microscope. […]

[2] = test system: neurons in the dorsal horn of the spinal cord (c-fos); experiment: Immunostaining of c-fos in lumbar cord tissue after intrathecal netrin-4; type: in vivo, rat; conditions: lumbar cord tissue 48 hours after intrathecal administration, vs physiological saline
Procedure: as §3

O=S(=O)(O)c1ccc2cc(N=Nc3cc(S(=O)(=O)O)c4cccnc4c3O)ccc2c1 [NSC87877]
change in withdrawal threshold after administration of mixture with netrin-4 (SHP2): reduction in withdrawal threshold was observed in the group of administration of netrin-4 alone, but not
degree of reduction in withdrawal threshold at 24 hours after administration (SHP2): significantly curbed

CC(C)(c1ccc(NS(=O)(=O)C(F)(F)F)cc1)c1ccc(C(C)(C)c2ccc(NS(=O)(=O)C(F)(F)F)cc2)cc1 [PTPi4, bis(4-trifluoromethylsulfonamidophenyl)-1,4-diisopropylben zene]
change in withdrawal threshold after administration of mixture with netrin-4 (SHP2): reduction in withdrawal threshold was observed in the group of administration of netrin-4 alone, but not
degree of reduction in withdrawal threshold at 24 hours after administration (SHP2): significantly curbed

B1: netrin-4: purified netrin-4 protein (R&D) dissolved in physiological saline (protein, UniProt Q9HB63 19-628, looked up)
Netrin-4: GLSGVAGVSSRCEKACNPRMGNLALGRKLWADTTCGQNATELYCFYSENTDLTCRQPKCDKCNAAYPHLAHLPSAMADSSFRFPRTWWQSAEDVHREKIQLDLEAEFYFTHLIVMFKSPRPAAMVLDRSQDFGKTWKPYKYFATNCSATFGLEDDVVKKGAICTSKYSSPFPCTGGEVIFKALSPPYDTENPYSAKVQEQLKITNLRVQLLKRQSCPCQRNDLNEEPQHFTHYAIYDFIVKGSCFCNGHADQCIPVHGFRPVKAPGTFHMVHGKCMCKHNTAGSHCQHCAPLYNDRPWEAADGKTGAPNECRTCKCNGHADTCHFDVNVWEASGNRSGGVCDDCQHNTEGQYCQRCKPGFYRDLRRPFSAPDACKPCSCHPVGSAVLPANSVTFCDPSNGDCPCKPGVAGRRCDRCMVGYWGFGDYGCRPCDCAGSCDPITGDCISSHTDIDWYHEVPDFRPVHNKSEPAWEWEDAQGFSALLHSGKCECKEQTLGNAKAFCGMKYSYVLKIKILSAHDKGTHVEVNVKIKKVLKSTKLKIFRGKRTLYPESWTDRGCTCPILNPGLEYLVAGHEDIRTGKLIVNMKSFVQHWKPSLGRKVMDILKRECK
change in withdrawal threshold (von Frey filament test) (male Wistar rat; intrathecal 10 μL of 40 ng/μL, 12, 24 and 48 hours after administration): significant reduction in the netrin-4-administered rats versus the control group at 12, 24 and 48 hours after the administration; also recorded: reduction in withdrawal threshold was observed
degree of change in withdrawal threshold from before to 24 hours after administration (male Wistar rat; intrathecal 10 μL of 1% netrin-4 solution (0.4 ng/μL)): no significant reduction was observed
degree of change in withdrawal threshold from before to 24 hours after administration (male Wistar rat; intrathecal 10 μL of 10% netrin-4 solution (4 ng/μL)): reduction in withdrawal threshold was observed
cell morphology and spinal distribution of Iba1, GFAP, CD3ε and CD45R positive cells [1]: No remarkable difference
number of c-fos-positive cells in the dorsal horn of the spinal cord [2]: increased as compared with that in the control group

B2: thermally denatured netrin-4: netrin-4 solution (40 ng/μL) heat-treated at 100° C. for 10 minutes (protein, UniProt Q9HB63 19-628, looked up)
Netrin-4: B1 Netrin-4
modifications: heat-denatured
notes: netrin-4 solution (40 ng/μL) heat-treated at 100° C. for 10 minutes
degree of change in withdrawal threshold from before to 24 hours after administration (male Wistar rat; intrathecal 10 μL of 40 ng/μL solution heat-treated at 100° C. for 10 minutes): did not reduce the withdrawal threshold
